Source: the supplement of paper PMC10126150
± gives the standard deviation of the averaged measurements.

Tested on: ATP
Experiment: switch fluorescence ratio, 500 uM ATP over buffer (Cy3 cluster intensity, sum of 5 cycles each) (fold (ratio)); higher = stronger signal-on switching upon ATP binding; sequences stand for … in TCGTCGGCAGCGTCAGATGTGTATAAGAGACAGTTTTTTTTTTTTTTTTTTTTTTTTT…TC
Settings: aptamer strand: ATP DNA aptamer (quencher-CACCTGGGGGAGTATTGCGGAGGAAGG + anchor), 100 nM annealed; ATP concentration: 500 uM
In short: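 Per cluster, summed Cy3 intensity from the target cycles was divided by that from the buffer cycles to give the fluorescence ratio, then averaged per switch-domain sequence. Clusters outside 100-1000 RFU were excluded. The Cy3-labelled switching-strand clusters, on a modified Illumina MiSeq flow-cell, were annealed to 100 nM quencher-labelled ATP aptamer and imaged in selection buffer, then after 15 min with 500 uM ATP at 22 °C, for five cycles with NaOH stripping and re-annealing between them.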
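Also: ATP exposure 15 min at 22 °C before imaging.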

| Sequence | switch fluorescence ratio |
| --- | --- |
| GGGGTGTTGT | 1 ± 0.04 |
| GGGGTTAAAG | 0.977 ± 0.022 |
| GGGGTTACAG | 1.01 ± 0.013 |
| GGGGTTAGCT | 0.987 ± 0.018 |
| GGGGTTATAG | 1.04 ± 0.12 |
| GGGGTTATTC | 0.986 ± 0.026 |
| GGGGTTCACC | 0.957 ± 0.023 |
| GGGGTTCACT | 1.01 ± 0.029 |
| GGGGTTCGTA | 0.966 ± 0.028 |
| GGGGTTGAAA | 0.973 ± 0.083 |
| GGGGTTGAAT | 1.01 ± 0.046 |
| GGGGTTGGCG | 1.117 ± 0.0064 |
| GGGGTTGGGA | 0.971 ± 0.025 |
| GGGGTTGGTC | 1.04 ± 0.048 |
| GGGGTTGGTT | 0.995 ± 0.044 |
| GGGGTTGTCA | 0.99 ± 0.058 |
| GGGGTTGTCT | 1.01 ± 0.072 |
| GGGGTTTAGT | 1.01 ± 0.022 |
| GGGGTTTATC | 1.01 ± 0.04 |
| GGGGTTTCCT | 1.11 ± 0.16 |
| GGGGTTTGAT | 0.996 ± 0.021 |
| GGGGTTTGGA | 0.987 ± 0.024 |
| GGGGTTTTAA | 0.988 ± 0.02 |
| GGGGTTTTGT | 1.01 ± 0.011 |
| GGGTAAATTG | 1.041 ± 0.0068 |

| Sequence | switch fluorescence ratio |
| --- | --- |
| GGGTAAATTT | 0.996 ± 0.015 |
| GGGTAACTGG | 1 ± 0.027 |
| GGGTAAGAGT | 1 ± 0.043 |
| GGGTAATGCG | 1.06 ± 0.058 |
| GGGTAATTGA | 0.99 ± 0.032 |
| GGGTACGCAC | 1.82 ± 0.034 |
| GGGTACGGGA | 1.06 ± 0.069 |
| GGGTACGTCA | 1.03 ± 0.071 |
| GGGTACGTCG | 0.996 ± 0.019 |
| GGGTACTATT | 0.982 ± 0.031 |
| GGGTACTGGG | 1 ± 0.034 |
| GGGTAGACTT | 0.996 ± 0.013 |
| GGGTAGGATA | 1.01 ± 0.012 |
| GGGTAGGCTT | 0.965 ± 0.023 |
| GGGTAGTCGG | 0.993 ± 0.032 |
| GGGTAGTGCG | 0.9812 ± 0.0055 |
| GGGTATCCGT | 0.979 ± 0.032 |
| GGGTATGGTA | 1 ± 0.023 |
| GGGTATGTA | 1.01 ± 0.03 |
| GGGTATTGTG | 0.994 ± 0.033 |
| GGGTATTTGT | 1 ± 0.03 |
| GGGTATTTTT | 0.994 ± 0.014 |
| GGGTCACAAA | 0.978 ± 0.01 |
| GGGTCATAGT | 1.012 ± 0.0094 |
| GGGTCATGTT | 1 ± 0.015 |

| Sequence | switch fluorescence ratio |
| --- | --- |
| GGGTCATTGA | 0.998 ± 0.024 |
| GGGTCCATGA | 1.03 ± 0.05 |
| GGGTCCGAAT | 1.02 ± 0.016 |
| GGGTCGGCCG | 0.983 ± 0.033 |
| GGGTCGGGTA | 1.04 ± 0.017 |
| GGGTCTCAGT | 0.994 ± 0.032 |
| GGGTCTGAGT | 0.9621 ± 0.009 |
| GGGTCTGTTG | 0.975 ± 0.013 |
| GGGTCTTTGG | 0.97 ± 0.023 |
| GGGTGAAAAC | 1.03 ± 0.014 |
| GGGTGAAAGG | 0.996 ± 0.025 |
| GGGTGAAATT | 0.986 ± 0.035 |
| GGGTGAATGG | 0.9976 ± 0.0016 |
| GGGTGAGATC | 1.02 ± 0.012 |
| GGGTGAGGAG | 0.998 ± 0.025 |
| GGGTGAGGTA | 0.97888 ± 0.00072 |
| GGGTGAGGTG | 0.98 ± 0.068 |
| GGGTGATCGG | 0.984 ± 0.023 |
| GGGTGATTTT | 0.992 ± 0.049 |
| GGGTGCTGCC | 1 ± 0.037 |
| GGGTGCTGTG | 1 ± 0.034 |
| GGGTGGACCT | 1.13 ± 0.048 |
| GGGTGGCAAG | 0.996 ± 0.03 |
| GGGTGGCCTG | 1.03 ± 0.077 |
| GGGTGGGCAT | 1.03 ± 0.013 |

| Sequence | switch fluorescence ratio |
| --- | --- |
| GGGTGGGCGT | 1.05 ± 0.043 |
| GGGTGGGGTC | 1 ± 0.034 |
| GGGTGGGTGC | 1.02 ± 0.048 |
| GGGTGGTAGG | 1 ± 0.028 |
| GGGTGGTGCT | 0.978 ± 0.021 |
| GGGTGGTTAC | 0.99 ± 0.044 |
| GGGTGTACCT | 1.039 ± 0.0043 |
| GGGTGTGCAT | 1.04 ± 0.016 |
| GGGTGTGGGG | 0.989 ± 0.046 |
| GGGTGTGGGT | 0.965 ± 0.026 |
| GGGTGTTCCT | 0.989 ± 0.039 |
| GGGTGTTTCT | 1.01 ± 0.028 |
| GGGTTAAAGG | 1 ± 0.015 |
| GGGTTAAGTA | 0.993 ± 0.031 |
| GGGTTAATAC | 1.29 ± 0.069 |
| GGGTTAATGG | 0.986 ± 0.011 |
| GGGTTACAGC | 1 ± 0.026 |
| GGGTTATGTT | 0.977 ± 0.024 |
| GGGTTCATTG | 0.974 ± 0.033 |
| GGGTTCTATG | 1.004 ± 0.0042 |
| GGGTTGAGTG | 0.982 ± 0.028 |
| GGGTTGATGA | 1.012 ± 0.0093 |
| GGGTTGCACG | 0.9936 ± 0.0015 |
| GGGTTGCGGA | 0.966 ± 0.035 |
| GGGTTGCGTA | 1.006 ± 0.0027 |

| Sequence | switch fluorescence ratio |
| --- | --- |
| GGGTTGGACG | 1.02 ± 0.053 |
| GGGTTGGATG | 0.996 ± 0.025 |
| GGGTTGGGCT | 1 ± 0.03 |
| GGGTTGGTCG | 0.955 ± 0.016 |
| GGGTTGGTGG | 0.992 ± 0.029 |
| GGGTTGGTTT | 1.0207 ± 0.00021 |
| GGGTTGTAAG | 0.986 ± 0.013 |
| GGGTTGTCGA | 0.952 ± 0.011 |
| GGGTTTAATG | 0.96 ± 0.016 |
| GGGTTTAGAA | 0.979 ± 0.049 |
| GGGTTTAGAG | 0.9877 ± 0.0093 |
| GGGTTTAGTA | 0.998 ± 0.02 |
| GGGTTTATGG | 0.987 ± 0.056 |
| GGGTTTCAAG | 1.05 ± 0.04 |
| GGGTTTGAA | 0.988 ± 0.021 |
| GGGTTTGACT | 0.998 ± 0.031 |
| GGGTTTGGAA | 0.961 ± 0.027 |
| GGGTTTGGAT | 0.984 ± 0.025 |
| GGGTTTGGTT | 0.976 ± 0.041 |
| GGGTTTGTAT | 0.979 ± 0.046 |
| GGGTTTGTCA | 1.02 ± 0.029 |
| GGGTTTTAAC | 0.9798 ± 0.0034 |
| GGGTTTTAGG | 0.999 ± 0.032 |
| GGGTTTTAGT | 1.01 ± 0.029 |
| GGGTTTTATA | 1.016 ± 0.01 |

| Sequence | switch fluorescence ratio |
| --- | --- |
| GGGTTTTGCT | 0.955 ± 0.028 |
| GGGTTTTGTG | 1.01 ± 0.022 |
| GGGTTTTTGT | 1.04 ± 0.055 |
| GGTAAAGGGA | 1.01 ± 0.036 |
| GGTAAAGGTT | 0.999 ± 0.034 |
| GGTAACACCA | 1.015 ± 0.0095 |
| GGTAACGTAG | 0.991 ± 0.022 |
| GGTAAGATGG | 0.995 ± 0.032 |
| GGTAAGTAGG | 1.03 ± 0.042 |
| GGTAATAAGG | 1.05 ± 0.028 |
| GGTAATGTTT | 1.01 ± 0.014 |
| GGTACAGTTT | 0.975 ± 0.019 |
| GGTACCTTAG | 1.059 ± 0.0087 |
| GGTACCTTTG | 0.9729 ± 0.009 |
| GGTACGTTTT | 1.03 ± 0.024 |
| GGTACTACGG | 1.05 ± 0.017 |
| GGTACTCATC | 1.02 ± 0.052 |
| GGTACTTTGT | 1.03 ± 0.039 |
| GGTAGAAAGG | 1.03 ± 0.093 |
| GGTAGAGGGA | 0.9783 ± 0.0085 |
| GGTAGAGGGT | 0.978 ± 0.066 |
| GGTAGAGGTA | 1.02 ± 0.013 |
| GGTAGATTCG | 0.994 ± 0.027 |
| GGTAGATTGG | 0.961 ± 0.015 |
| GGTAGATTTT | 0.9792 ± 0.003 |

| Sequence | switch fluorescence ratio |
| --- | --- |
| GGTAGCAGGG | 1.014 ± 0.0097 |
| GGTAGCCTGC | 1.02 ± 0.023 |
| GGTAGCGAAG | 0.97 ± 0.026 |
| GGTAGCTAAG | 1 ± 0.034 |
| GGTAGGCAGG | 1 ± 0.021 |
| GGTAGGGATA | 1.08 ± 0.11 |
| GGTAGGGGGC | 1.01 ± 0.033 |
| GGTAGTATCC | 1.02 ± 0.025 |
| GGTAGTATTT | 0.996 ± 0.028 |
| GGTAGTGGCT | 0.993 ± 0.01 |
| GGTAGTGGGC | 1.02 ± 0.034 |
| GGTATACTTA | 1.04 ± 0.0075 |
| GGTATAGGGA | 1.01 ± 0.026 |
| GGTATATCTT | 1.01 ± 0.076 |
| GGTATATTAA | 1.02 ± 0.023 |
| GGTATATTAG | 0.99 ± 0.028 |
| GGTATATTTT | 1.03 ± 0.1 |
| GGTATCAGTT | 1.0006 ± 0.0002 |
| GGTATCGCGG | 1 ± 0.023 |
| GGTATCTGTA | 1 ± 0.023 |
| GGTATGCAGG | 0.985 ± 0.026 |
| GGTATGCGCT | 0.9934 ± 0.0049 |
| GGTATTACGA | 0.989 ± 0.036 |
| GGTATTAGTG | 1.01 ± 0.021 |
| GGTATTATTG | 0.998 ± 0.023 |

| Sequence | switch fluorescence ratio |
| --- | --- |
| GGTATTTAAA | 0.982 ± 0.029 |
| GGTCAAAGTG | 1.004 ± 0.0058 |
| GGTCAGAAGG | 0.996 ± 0.026 |
| GGTCATAATT | 0.986 ± 0.025 |
| GGTCATGAGG | 0.989 ± 0.023 |
| GGTCATGGGA | 0.99 ± 0.017 |
| GGTCATGTTT | 0.993 ± 0.043 |
| GGTCCGGGGC | 1.01 ± 0.026 |
| GGTCCTCGGG | 1.03 ± 0.03 |
| GGTCCTGGGG | 1.01 ± 0.039 |
| GGTCCTTAAT | 0.989 ± 0.025 |
| GGTCCTTAGG | 1 ± 0.021 |
| GGTCCTTGTT | 1.005 ± 0.0018 |
| GGTCGACTTT | 1.0094 ± 0.00072 |
| GGTCGAGCC | 0.983 ± 0.021 |
| GGTCGAGTGG | 0.988 ± 0.0032 |
| GGTCGATGGT | 0.99 ± 0.011 |
| GGTCGCATTC | 1.05 ± 0.047 |
| GGTCGCTACA | 1.01 ± 0.026 |
| GGTCGGCCGG | 1.0178 ± 0.00045 |
| GGTCGGCGGG | 1.03 ± 0.1 |
| GGTCGGCGTC | 1.014 ± 0.0089 |
| GGTCGGGACG | 0.9588 ± 0.0015 |
| GGTCGGGAGA | 0.96 ± 0.039 |
| GGTCGGGGGC | 1.02 ± 0.031 |
